Assay results: doi:10.1101/2025.09.29.679187 (bioRxiv, 2025)

Molecular target: 6xHis-PDE6D (UniProt O43924 1-150)
Assay: fluorescence polarisation

6xHis-PDE6D, sequence (O43924 whole entry): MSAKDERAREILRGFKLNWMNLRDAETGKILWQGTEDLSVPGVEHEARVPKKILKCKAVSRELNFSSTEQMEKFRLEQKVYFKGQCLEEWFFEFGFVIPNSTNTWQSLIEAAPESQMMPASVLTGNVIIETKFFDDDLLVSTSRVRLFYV

- Kd: 200 nM
B1: Wild-type K-Ras peptide (FAM-KKKKKKSKTKC-Far-OMe) (peptide)
peptide: KKKKKKSKTKC
modifications: FAM on the N-terminus; C-terminal cysteine farnesylated (Far) and carboxymethylated (OMe)
